Here are results for one substance from patent US20240279309A1.

This test has as its target CD40 receptor on cells (HEK293 reporter cells expressing CD40; primary human B cells) (human) (UniProt P25942). Put plainly: cell-based or functional assay.

Where “and” joins values, the source holds several entries; their conditions need not be identical. Equal values may be shown once.

Sequence of anti-CD40 monoclonal antibody corresponding to sequence 21.4.1 of U.S. Pat. No. 7,338,660 B2 (VH): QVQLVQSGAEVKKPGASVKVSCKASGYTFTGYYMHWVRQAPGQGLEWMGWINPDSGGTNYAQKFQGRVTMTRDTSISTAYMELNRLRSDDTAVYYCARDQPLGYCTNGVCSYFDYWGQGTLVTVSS
Sequence of anti-CD40 monoclonal antibody corresponding to sequence 21.4.1 of U.S. Pat. No. 7,338,660 B2 (VL): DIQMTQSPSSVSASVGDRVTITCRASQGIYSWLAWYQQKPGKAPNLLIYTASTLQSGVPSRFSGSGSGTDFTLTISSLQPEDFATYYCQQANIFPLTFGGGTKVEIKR
Sequence of CD40 receptor on cells (HEK293 reporter cells expressing CD40; primary human B cells) (human) (P25942 21-277): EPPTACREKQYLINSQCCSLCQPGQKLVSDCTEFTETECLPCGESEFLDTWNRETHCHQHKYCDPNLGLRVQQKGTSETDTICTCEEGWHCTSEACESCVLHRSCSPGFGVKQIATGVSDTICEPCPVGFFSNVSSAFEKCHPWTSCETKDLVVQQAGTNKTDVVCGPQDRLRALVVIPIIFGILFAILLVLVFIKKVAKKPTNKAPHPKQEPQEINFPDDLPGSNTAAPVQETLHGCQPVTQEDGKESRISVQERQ

Take “anti-CD40 monoclonal antibody corresponding to sequence 21.4.1 of U.S. Pat. No. 7,338,660 B2”: the EC50 [nM], % CD86, human B cells with FAP-CHO, w HSA was 0.88 nM and 0.3 nM; the EC50 [nM], % CD86, human B cells with FAP-CHO, w/o HSA is 1.9 nM and 0.51 nM; the EC50 [nM], MFI CD86, human B cells with FAP-CHO, w HSA is 0.51 nM and 2.05 nM; the EC50 [nM], MFI CD86, human B cells with FAP-CHO, w/o HSA is 1.13 nM and 4.73 nM. The Efficacy [MFI at highest dose], MFI CD86, human B cells with FAP-CHO, w HSA is 1530 MFI and 1870 MFI; the Efficacy [MFI at highest dose], MFI CD86, human B cells with FAP-CHO, w/o HSA is 1340 MFI and 2060 MFI; the Efficacy [MFI at highest dose], MFI CD86, human B cells with WT-CHO (no FAP), w HSA is 1470 MFI and 1900 MFI; the Efficacy [MFI at highest dose], MFI CD86, human B cells with WT-CHO (no FAP), w/o HSA was 1390 MFI and 2050 MFI.
